B1: NT-4/5: mature human neurotrophin-4/5 (SEQ ID NO:1), obtained from Genentech or produced in E. coli (protein, listed as Homo sapiens)
chain: GVSETAPASRRGELAVCDAVSGWVTDRRTAVDLRGREVEVLGEVPAAGGSPLRQYFFETRCKADNAEEGGPGAGGGGCRGVDRRHWVSECKAKQSYVRALTADAQGRVGWRWIRIDTACVCTLLSRTGRA

How the values were obtained:
db/db mice [1] = assay: Food intake of db/db mice (Example 1); format: in vivo; conditions: for food intake, mean: NT-4/5 20 mg/kg s.c., Rosiglitazone 3 mg/kg p.o.
Experimental: Throughout the experiment period (T1-T26), daily individual body weights as well as food intake per cage were measured.

db/db mice [2] = assay: Co-administration of Mab 1241 with NT4/5 in db/db mice (Example 15); format: in vivo; conditions: NT4/5 2 mg/kg s.c. daily day 1-5; Mab 1241 5 mg/kg i.p. single on day 1
Excerpt: Test animals: 32 Leptin receptor mutant db/db mice (BSK.Cg-m+/+Leprdb) obtained from Jackson Laboratory were used for the study. The mice were divided into four groups of 8 animals each (groups 1-4), with homogeneous initial body weight and glycemia values based on a randomization table. The mice were housed one per cage.
Anti-NT4/5 and NT4/5: Both anti-NT4/5 monoclonal antibody Mab 1241 and human NT4/5 were obtained from Genentech. […] (data not shown).
Administration of Mab 1241 and NT4/5: On day one, mice in groups 1-4 were treated with vehicle (PBS) subcutanouesly (s.c.), 5 mg/kg Mab 1241 intraperitioneally (i.p.), 5 mg/kg Mab 1241 intraperitioneally (i.p.) plus 2 mg/kg NT4/5 subcutanouesly (s.c.), and 2 mg/kg NT4/5 subcutanouesly (s.c.), respectively. On day 2 through day 5, group 1 was treated with a daily dose of vehicle (PBS) subcutanouesly (s.c.). Groups 3 and 4 were treated with a daily dose of 2 mg/kg NT4/5 subcutanouesly (s.c.).
Baseline non-fasted blood glucose level was measured by One-Touch Ultra glucose meter from the tail bleed.

human TrkA = target: T1, human TrkA (Homo sapiens, UniProt P04629); assay: Receptor tyrosine phosphorylation in trkA expressing cell line; format: cell-based
T1 construct: expressed in transfected cells
Excerpt: (§1) Assays of TrkB specific activation by pegylated NT-4/5: Stable cell lines expressing human TrkA, TrkB or TrkC were used to determine the functional activity, i.e. receptor phosphorylation, of NT-4/5 and pegylated NT-4/5 as previously described (Sadick et al. Experimental Cell Research 234: 354-361, 1997).
(§2) Assays of TrkB specific activation by pegylated NT-4/5: Stable cell lines expressing human TrkA, TrkB or TrkC were used to determine the functional activity, i.e. receptor phosphorylation, of NT-4/5 and different forms of pegylated NT-4/5 as previously described (Sadick et al. Experimental Cell Research 234: 354-361, 1997).

[3] = tested on: NONcNZO-10 polygenic obese mice; assay: Body weight in NONcNZO-10 mice (Example 4, Table 19); format: in vivo
Excerpt: Test animals: 40 male NONcNZO-10 polygenic obese mice obtained from Jackson Laboratory at 10 weeks of age weighing in the range of 26-32 g were used in this study.
Administration of NT-4/5: NT-4/5 was produced in E. coli as descried in U.S. Pat. No. 6,184,360. The mice were divided into 6 groups of equivalent body weight and baseline blood glucose distribution (6-7 mice per group). […] A “paired-fed” control group received daily injection of vehicle, but were only fed with the same amount of food the 3 mg/kg group consumed the previous day. On the day when the treatment started (day 1), a baseline blood samples were collected for measuring glucose and triglyceride. Triglyceride level was measured on day 10. At the end of the study (day 12), a terminal blood sample was collected to determine glucose, triglyceride, electrolytes (Na, K, Cl), testoterone, corticosterone, thyroid hormone (total T4) and thyroid stimulating hormone (TSH) levels. Electrolytes, free testosterone, T4 and TSH levels of serum samples were measured by AniLytics (Gaithesburg, M.D) according to the standard protocols employed by the vendor. Other analytes were measured as described above. Body weight, food intake were monitored 5 days per week through out the entire study. Daily water intake was measured from day 5 through day 7.

lean C57BL/6 mice = assay: Body weight, food intake, nonfasting blood glucose, triglyceride in normal lean C57BL/6 mice (Example 11); format: in vivo; conditions: for weight loss as compared to the vehicle control group: female C57BL/6 mice, day 2
Experimental: Test animals: Mice with normal diet were used in this study.
Administration of NT-4/5: NT-4/5 was produced as described in U.S. Pat. No. 6,184,360. The mice were divided into 5 groups of equivalent baseline body weight, food intake and nonfasting blood glucose level distribution (8 mice per group). Each group received 4 daily subcutaneous doses of vehicle, 1 mg/kg, 2 mg/kg, 5 mg/kg or 10 mg/kg of NT-4/5, respectively, from day 1 to day 4. Body weight and food intake were monitored on daily basis. The non-fasting blood glucose was measure as previously described once a week (day 1 and day 8).

human TrkC = target: T2, human TrkC (Homo sapiens, UniProt Q16288); assay: Receptor tyrosine phosphorylation in trkC expressing cell line; format: cell-based
T2 construct: expressed in transfected cells
Excerpt: as §1, §2

[4] = lean male mice, 1, 2, 5 and 10 mg/kg s.c. daily, dose dependent

T2 sequence (Q16288 32-839): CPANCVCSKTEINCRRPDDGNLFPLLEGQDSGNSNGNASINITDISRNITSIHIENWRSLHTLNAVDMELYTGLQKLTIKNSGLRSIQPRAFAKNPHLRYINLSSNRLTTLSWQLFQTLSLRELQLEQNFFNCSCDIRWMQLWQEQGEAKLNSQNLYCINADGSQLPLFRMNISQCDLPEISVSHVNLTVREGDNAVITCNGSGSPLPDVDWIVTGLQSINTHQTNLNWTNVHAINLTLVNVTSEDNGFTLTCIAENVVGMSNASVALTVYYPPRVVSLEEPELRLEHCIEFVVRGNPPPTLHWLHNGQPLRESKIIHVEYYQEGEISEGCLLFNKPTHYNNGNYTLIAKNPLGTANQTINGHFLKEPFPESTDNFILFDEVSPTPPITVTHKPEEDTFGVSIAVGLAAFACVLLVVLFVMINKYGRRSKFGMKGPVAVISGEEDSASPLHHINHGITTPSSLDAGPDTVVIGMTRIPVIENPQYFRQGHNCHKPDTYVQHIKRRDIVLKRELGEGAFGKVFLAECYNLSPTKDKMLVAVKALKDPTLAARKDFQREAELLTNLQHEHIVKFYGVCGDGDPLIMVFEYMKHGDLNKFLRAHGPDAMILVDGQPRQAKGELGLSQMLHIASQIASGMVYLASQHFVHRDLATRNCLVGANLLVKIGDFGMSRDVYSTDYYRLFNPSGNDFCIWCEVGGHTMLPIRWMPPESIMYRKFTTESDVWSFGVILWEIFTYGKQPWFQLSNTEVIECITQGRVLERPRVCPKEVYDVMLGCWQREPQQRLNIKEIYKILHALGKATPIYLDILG
T1 sequence (P04629 33-796): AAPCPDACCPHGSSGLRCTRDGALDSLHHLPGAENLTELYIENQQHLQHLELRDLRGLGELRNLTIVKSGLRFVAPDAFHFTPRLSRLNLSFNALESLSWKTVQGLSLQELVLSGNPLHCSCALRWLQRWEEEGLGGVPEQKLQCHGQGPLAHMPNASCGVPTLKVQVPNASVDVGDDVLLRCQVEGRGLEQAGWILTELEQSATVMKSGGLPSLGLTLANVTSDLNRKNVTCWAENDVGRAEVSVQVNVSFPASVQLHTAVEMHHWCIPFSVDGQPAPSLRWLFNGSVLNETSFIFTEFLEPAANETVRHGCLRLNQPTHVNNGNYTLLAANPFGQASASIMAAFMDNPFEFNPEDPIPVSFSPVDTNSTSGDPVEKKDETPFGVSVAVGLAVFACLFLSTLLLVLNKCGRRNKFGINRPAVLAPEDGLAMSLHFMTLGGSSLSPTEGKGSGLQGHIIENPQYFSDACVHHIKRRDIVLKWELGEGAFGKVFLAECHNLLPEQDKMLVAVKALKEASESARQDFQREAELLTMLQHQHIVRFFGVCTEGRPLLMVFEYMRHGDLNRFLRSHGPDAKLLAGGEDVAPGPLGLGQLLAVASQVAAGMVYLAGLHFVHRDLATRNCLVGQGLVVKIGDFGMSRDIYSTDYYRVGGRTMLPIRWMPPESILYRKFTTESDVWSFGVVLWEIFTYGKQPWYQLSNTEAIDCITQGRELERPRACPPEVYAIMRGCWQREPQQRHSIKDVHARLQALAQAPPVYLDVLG

| Molecule | food intake, mean (db/db mice [1]; Day 1) [g/kg/day] | food intake, mean (db/db mice [1]; Day 2) [g/kg/day] | food intake, mean (db/db mice [1]; Day 3) [g/kg/day] | food intake, mean (db/db mice [1]; Day 5) [g/kg/day] | food intake, mean (db/db mice [1]; Day 6) [g/kg/day] | food intake, mean (db/db mice [1]; Day 7) [g/kg/day] | food intake, mean (db/db mice [1]; Day 8) [g/kg/day] | food intake, mean (db/db mice [1]; Day 9) [g/kg/day] | food intake, mean (db/db mice [1]; Day 10) [g/kg/day] | food intake, mean (db/db mice [1]; Day 11) [g/kg/day] | food intake, mean (db/db mice [1]; Day 12) [g/kg/day] | food intake, mean (db/db mice [1]; Day 13) [g/kg/day] | food intake, mean (db/db mice [1]; Day 14) [g/kg/day] | food intake, mean (db/db mice [1]; Day 15) [g/kg/day] | food intake, mean (db/db mice [1]; Day 19) [g/kg/day] | food intake, mean (db/db mice [1]; Day 20) [g/kg/day] | food intake, mean (db/db mice [1]; Day 21) [g/kg/day] | food intake, mean (db/db mice [1]; Day 22) [g/kg/day] | food intake, mean (db/db mice [1]; Day 25) [g/kg/day] | food intake, mean (db/db mice [1]; Day 26) [g/kg/day] | further results |
| --- | --- | --- | --- | --- | --- | --- | --- | --- | --- | --- | --- | --- | --- | --- | --- | --- | --- | --- | --- | --- | --- |
| CN(CCOc1ccc(CC2SC(=O)NC2=O)cc1)c1ccccn1 (stereo not drawn) [Rosiglitazone, reference compound] | 100.8 | 124.9 | 137.8 | 143.1 | 63.4 | 96.6 | 129.1 | 139.3 | 140.2 | 128.1 | 114.4 | 98.3 | 129.1 | 100.3 | 102.0 | 90.5 | 129.9 | 122.3 | 125.4 | 109.2 | food intake, mean (db/db mice [1]; Day 18): 108.2 g/kg/day |
| B1 | 104.1 | 56.9 | 90.7 | 44.1 | 38.5 | 43.1 | 63.4 | 45.6 | 51.8 | 56.2 | 62.6 | 42.3 | 76.3 | 69.9 | 78.0 | 79.1 | 123.9 | 114.4 | 120.6 | 116.3 | body weight (db/db mice [2]): small, but statistically insignificant reduction in body weight; food intake (db/db mice [2]): significantly reduced food intake on day 8 and day 10; non-fasted glucose level (db/db mice [2]): reduced non-fasted glucose level only on day 9, but not on day 4; receptor tyrosine phosphorylation of trkA-expressing cell line (human TrkA): did not increase receptor tyrosine phosphorylation; body weight loss relative to the vehicle control ([3]; 1 mg/kg): about 5%; body weight loss relative to the vehicle control ([3]; 3 mg/kg): about 10%; body weight ([3]; dose dependent manner): reduced body weight; weight loss as compared to the vehicle control group (lean C57BL/6 mice; 5 mg/kg): about 8%; weight loss as compared to the vehicle control group (lean C57BL/6 mice; 10 mg/kg): about 11%; blood triglyceride (lean C57BL/6 mice; [4]): significantly reduced blood triglyceride; body weight (lean C57BL/6 mice; [4]): significantly reduced the body weight; food intake (lean C57BL/6 mice; lean male mice, 1, 5 and 10 mg/kg s.c. daily, dose dependent): significantly reduced food intake; nonfasting blood glucose (lean C57BL/6 mice; lean male mice, 2, 5 and 10 mg/kg s.c. daily, dose dependent): significantly reduced nonfasting blood glucose; receptor tyrosine phosphorylation of trkC-expressing cell line (human TrkC): did not increase receptor tyrosine phosphorylation; food intakes (db/db mice [1]; 20 mg/kg s.c.): dramatically suppressed; food intake, mean (db/db mice [1]; Day 4): 68.6 g/kg/day |
